Laboratory results reported in PMC10684826.
Like-named read-outs stand apart in the source and are kept apart here.

How the values were obtained:
Assay in all cases: EMSA
AhoSSB [1] = molecular target: T1, AhoSSB (Acidianus hospitalis W1, UniProt F4B912 1-142)
T1 sequence: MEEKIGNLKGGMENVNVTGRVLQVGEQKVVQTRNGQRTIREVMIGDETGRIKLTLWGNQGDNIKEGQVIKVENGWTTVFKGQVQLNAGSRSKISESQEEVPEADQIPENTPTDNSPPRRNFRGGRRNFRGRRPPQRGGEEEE

EcoSSB = EcoSSB (Escherichia coli, UniProt P0AGE0 1-178)
SheSSB [2] = molecular target: T2, SheSSB (Staphylothermus hellenicus DSM 12710, UniProt D7D8N7 1-151)
T2 sequence: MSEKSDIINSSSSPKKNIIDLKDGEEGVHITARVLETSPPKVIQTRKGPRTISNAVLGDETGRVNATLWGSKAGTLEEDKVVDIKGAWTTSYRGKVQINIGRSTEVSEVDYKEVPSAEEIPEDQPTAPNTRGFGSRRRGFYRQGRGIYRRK

SacSSB [3] = molecular target: T3, SacSSB (Sulfolobus acidocaldarius DSM 639, UniProt Q4JA43 1-146)
T3 sequence: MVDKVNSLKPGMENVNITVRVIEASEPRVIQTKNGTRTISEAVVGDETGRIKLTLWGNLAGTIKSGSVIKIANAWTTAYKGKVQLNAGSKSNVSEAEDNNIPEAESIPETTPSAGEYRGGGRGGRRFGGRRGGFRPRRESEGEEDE

SisSSB deltaC53 = molecular target: T4, SisSSB deltaC53 (Saccharolobus islandicus REY15A, UniProt F0NBA9 1-95)
T4 sequence: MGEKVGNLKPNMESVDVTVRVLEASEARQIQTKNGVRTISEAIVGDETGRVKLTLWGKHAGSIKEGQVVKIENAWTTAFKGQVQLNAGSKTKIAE

SisSSB deltaC29 = molecular target: T5, SisSSB deltaC29 (Saccharolobus islandicus REY15A, UniProt F0NBA9 1-119)
T5 sequence: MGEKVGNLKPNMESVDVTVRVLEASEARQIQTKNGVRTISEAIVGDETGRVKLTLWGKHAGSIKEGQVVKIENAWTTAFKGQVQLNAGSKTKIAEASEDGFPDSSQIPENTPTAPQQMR

AhoSSB [4] = molecular target: T1, AhoSSB; remark: listed apart in the source
SheSSB [5] = molecular target: T2, SheSSB; remark: listed apart in the source
SacSSB [6] = molecular target: T3, SacSSB; remark: listed apart in the source

Measured: binding result

Sequence of EcoSSB (P0AGE0 whole entry): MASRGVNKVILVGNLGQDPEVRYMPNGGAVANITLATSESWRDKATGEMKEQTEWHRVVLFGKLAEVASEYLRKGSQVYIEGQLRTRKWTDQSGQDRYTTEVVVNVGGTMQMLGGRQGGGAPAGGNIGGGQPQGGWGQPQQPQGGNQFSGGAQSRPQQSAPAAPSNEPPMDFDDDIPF

B1: Fam-ssDNA 40 nt (ssDNA)
DNA: AGGGTTCTTTGTGGCGGCGTCATCTGTGCTTCCCTATCCA
not listed: AhoSSB [4] | SheSSB [5] | SacSSB [6]
binds: all other assays above

B2: Fam-ssRNA 40 nt (ssRNA)
RNA: AGGGUUCUUUGUGGCGGCGUCAUCUGUGCUUCCCUAUCCA
binds: AhoSSB [4] | SheSSB [5] | SacSSB [6] | SisSSB deltaC53 | SisSSB deltaC29
